Experiment [1] has as its system CD-1 mice. The experiment is described as follows: Gastrointestinal transit in post-operative inflammatory ileus model. The class given is in vivo. Conditions: 2 mg/kg one hour before surgery; transit 48 hr after operation, 45 minutes; FIG. 5. Here is the method: On the day of study, upper gastrointestinal transit was measured using the FITC-dextran method. This method provides both, a measure of gastrointestinal transit and a readout of the pattern of distribution of the test meal along the gastrointestinal tract. Mice were fed a test meal of […] of FITC-dextran solution (5 mg/ml of 70,000 molecular weight dextran conjugated to fluorescein-isothiocyanate in 0.5% methylcellulose/deionized water) administered intragastrically by an 18 gauge curved feeding tube. Following oral administration of the FITC-dextran test meal, mice were returned to their home cages. It was shown that a 30 min test period was the optimum duration for detecting accelerated transit, while a 45 min test period was optimum for detecting delayed transit. Following the appropriate test period, mice were sacrificed by carbon dioxide exposure. The entire gastrointestinal tract from the lower esophageal sphincter to the terminal colon was removed. […] Aliquots of the cleared supernatant were read in duplicate on a 96-well fluorescence plate reader to quantify the magnitude of the fluorescent signal in each segment of bowel. […] The GC is calculated in the lower panel for statistical comparison. […]
All mice received an oral test meal of FITC-dextran 48 hr after the operation. Gastrointestinal transit was determined 45 minutes after oral feeding. […]

Experiment [2] concerns CD-1 mice. The experiment is described as follows: Myeloperoxidase histochemistry of intestinal muscularis, post-operative inflammatory ileus. Conditions: 2 mg/kg one hour before surgery; tissue 48 hr after operation; FIG. 6, 7. It counts as in vivo. Here is the method:
Myeloperoxidase histochemistry was performed on tissues harvested from the mid-small bowel of the mice 48 hr after the operation.
Briefly, segments of mid-small bowel were collected from the centrifuge tubes described in Example 12. Whole mounts of the muscle layer were prepared by pinning the tissue flat in a Sylgard® lined Petri dish and stretching the tissue to 2 times its length and 1.5 times its width. The mucosa was removed by fine dissection. The muscularis whole mounts were then fixed with 100% ethanol for 1 hr, washed 3 times with PBS, and incubated for 20 min in PBS containing 0.1% hydrogen peroxide and 1 mg/ml Hanker-Yates reagent. Following a second wash with PBS, the whole mounts were mounted on glass slides, cover-slipped, and viewed on an optical microscope. Myeloperoxidase containing leukocytes were counted in 6 to 8 adjacent 200× optical fields of view and the mean cell counts were calculated and recorded.

B1: SEQ ID NO: 80: human A2G-GLP2 peptide in murine IgG2a scaffold (protein)
chain: HGDGSFSDEMNTILDNLAARDFINWLIQTKITDGSGGGSGTTVTVSAEPRGPTIKPCPPCKCPAPNAAGGPSVFIFPPKIKDVLMISLSPIVTCVVVDVSEDDPDVQISWFVNNVEVHTAQTQTHREDYNSTLRVVSALPIQHQDWMSGKEFKCKVNNKDLPAPIERTISKPKGSVRAPQVYVLPPPEEEMTKKQVTLTCMVTDFMPEDIYVEWTNNGKTELNYKNTEPVLDSDGSYFMYSKLRVEKKNWVERNSYSCSVVHEGLHNHHTTKSFSRTPGK
modifications: Human A2G-GLP2 peptide in murine IgG2a scaffold
As for B1, the “effect on surgically induced delay in gastrointestinal transit” value with CD-1 mice [1] is “significant improvement in transit”. In the experiment on CD-1 mice [2], the “number of MPO-positive leukocytes infiltrating small intestinal muscle layer” value is listed as “significantly reduced the number of infiltrating cells”.

The values above are taken from patent publication US20070212355A1 (priority 2005, published 2007).
